Assay results: patent US12281155

Columns and labels:
Conditions in all cases: remark: other sources report otherwise
[1] = target: T1, recombinant SARS-CoV-2 Spike RBD domain, BA.2 variant (SARS-CoV-2); assay: ELISA on coated RBD
[2] = target: T2, recombinant SARS-CoV-2 Spike RBD domain, BA.4/5 variant (SARS-CoV-2); assay: ELISA on coated RBD
[3] = target: T3, recombinant SARS-CoV-2 Spike RBD domain, Delta variant (SARS-CoV-2); assay: ELISA on coated RBD
[4] = target: T1, recombinant SARS-CoV-2 Spike RBD …; assay: competition ELISA, blocking of RBD binding to ACE2 ectodomain
[5] = target: T2, recombinant SARS-CoV-2 Spike RBD …; assay: as above
[6] = target: T3, recombinant SARS-CoV-2 Spike RBD …; assay: as above

B1: SPK002 antibody (parental version Cv2.3194 described in WO 2022/228827) (antibody, V domains shown)
VH: EVQLVESGGGLIQPGGSLRLSCAASGITVTSNYMSWVRQAPGKGLEWVSVIYPGGSTFYADSVKGRFTISRDNSKNTLYLQMNSLRAEDTAVYYCARDLVVYGMDVWGQGTTVTVS
VL: EIVLTQSPGTLSLSPGERATLSCRASQSVSSSYLAWYQQKPGQAPRLLIYGASSRATGIPGRFSGSGSGTDFTLTISRLEPEDFAIYYCQQGVTFGGGTKVEIK
Binding AUC [1]: 33 | Binding AUC [2]: 33 | Binding AUC [3]: 34 | Blocking % [4]: 94% | Blocking % [5]: 92% | Blocking % [6]: 93%
